Assay results as given in doi:10.1101/2025.08.18.670068 (2025).

What was measured:
Test in all cases: SPR
[1] = molecular target: soluble CCR8 analogue BM1
[2] = molecular target: soluble CCR8 analogue BM5
[3] = molecular target: soluble CCR8 analogue BM3
[4] = molecular target: soluble CCR8 analogue BM7
[5] = molecular target: soluble CCR8 analogue BM6

B1: mAb1 in full length human IgG1 format (antibody, V domains shown)
VH: QSVEESGGRLVTPGTPLTLTCTVSGFSLSNYAMIWVRQAPGEGLEWVGTISLGGYTYYANWAKGRFTISKTSTTVDLKISSPTTEDTATYFCARARWSTDSAIYTYAFDPWGPGTLVTVSS
VL: AYDMTQTPASVEVAVGGTVTIKCQASQSISSYLSWYQQKPGQRPELLIYKASTLASGVSSRFKGSGSGTQFTLTISDLEAADAATYYCQQGYTSSNIDNIFGGGTEVVVK
Kd [1]: 267 nM | Kd [2]: 629 nM | Kd [3]: 154 nM | Kd [4]: 252 nM | Kd [5]: 552 nM
